Experiment [1] has as its target CCR7 C-terminally fused to SmBiT (human) (UniProt P32248).
In experiment [2] the target is T1, ACKR4 C-terminally fused to SmBiT (UniProt Q9NPB9).
T1 sequence: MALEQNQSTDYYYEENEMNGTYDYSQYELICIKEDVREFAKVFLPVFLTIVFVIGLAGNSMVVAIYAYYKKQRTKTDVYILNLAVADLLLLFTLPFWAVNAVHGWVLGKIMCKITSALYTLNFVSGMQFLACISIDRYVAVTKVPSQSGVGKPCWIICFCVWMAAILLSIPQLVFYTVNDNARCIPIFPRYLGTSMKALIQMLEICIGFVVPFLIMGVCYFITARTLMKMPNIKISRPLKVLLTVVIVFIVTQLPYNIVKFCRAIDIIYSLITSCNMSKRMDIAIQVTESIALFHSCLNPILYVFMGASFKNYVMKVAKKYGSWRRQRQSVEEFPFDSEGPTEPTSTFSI

Experiment [3] deals with CCR7 C-terminally fused to SmBiT (human) (UniProt P32248). This is another data set of the same source.
Experiment [4] shares this target. The source holds these as a separate data set.
The target in experiment [5] is T2, CCR7 C-terminally fused to SmBiT (human, UniProt P32248 25-378).
T2 sequence (looked up): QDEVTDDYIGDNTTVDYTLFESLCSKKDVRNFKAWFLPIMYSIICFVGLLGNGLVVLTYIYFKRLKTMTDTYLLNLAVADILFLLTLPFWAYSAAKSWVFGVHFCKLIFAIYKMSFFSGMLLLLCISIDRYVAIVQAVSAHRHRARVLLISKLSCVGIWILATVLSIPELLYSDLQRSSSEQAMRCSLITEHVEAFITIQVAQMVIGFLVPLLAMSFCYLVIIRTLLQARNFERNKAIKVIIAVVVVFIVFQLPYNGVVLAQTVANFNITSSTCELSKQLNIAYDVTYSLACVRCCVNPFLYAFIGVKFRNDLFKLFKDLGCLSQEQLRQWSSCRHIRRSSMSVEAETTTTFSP
Nature of the experiment: cell-based or functional assay.

The target in experiment [6] is T3, ACKR4 C-terminally fused to SmBiT (UniProt Q9NPB9 1-350).
T3 sequence (looked up): T1 sequence
Nature of the experiment: cell-based or functional assay.

In experiment [7] the target is T4, CCL21WT (full-length human CCL21, residues 1–111) (human), O00585.
T4 chain: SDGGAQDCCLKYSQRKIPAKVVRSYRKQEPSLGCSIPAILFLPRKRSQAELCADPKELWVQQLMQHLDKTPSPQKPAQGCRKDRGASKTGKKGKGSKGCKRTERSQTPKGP
The experiment is described as follows: NMR titration. As to conditions: remark: other sources report otherwise.

Experiment [8] has as its target T4, CCL21WT (full-length human CCL21, …). Nature of the experiment: NMR titration. The conditions noted are these: remark: other sources report otherwise.

As for “CCL21 1–91 C80A (from UniProt O00585 24-114) (domain or fragment)”, in experiment [1], the calcium flux in CHEM-1 CCR7+ cells, EC50 amounted to 0.0073 µM. Also, in experiment [2], the β-arrestin 1 recruitment to ACKR4, EC50 amounted to 0.005 µM. For the same molecule, in experiment [3], the cAMP inhibition assay, dose–response from 10 pM to 100 nM, EC50 stood at 7 nM and the β-arrestin 1 recruitment to CCR7, EC50 was determined as 0.06 µM.

Turning to “CCL21 C80AC99A (from UniProt O00585 24-134) (ligand)”, the calcium mobilization in CHEM-1 CCR7+ cells, EC50 in experiment [4] was found to be 0.0253 µM.

As for “CCL21 1–101 (from UniProt O00585 24-124) (domain or fragment)”, in experiment [1], the calcium flux in CHEM-1 CCR7+ cells, EC50 is 0.0215 µM. The β-arrestin 1 recruitment to ACKR4, EC50 in experiment [2] was 0.03 µM. The molecule also showed a β-arrestin 1 recruitment to CCR7, EC50 in experiment [3] of 0.1 µM.

B1: CCL21WT (full-length human CCL21, residues 1–111) (ligand, UniProt O00585 24-134, looked up)
chain: T4 chain
Take B1: in experiment [5], the “calcium mobilization in CHEM-1 CCR7+ cells, EC50” value turned out to be 0.0334 µM and the “β-arrestin 1 recruitment to CCR7 (panel with the truncation variants), EC50” value was around 0.1 µM. The “β-arrestin 1 recruitment to ACKR4 (panel with the truncation variants), EC50” value in experiment [6] was around 0.03 µM. The Kd (usually the concentration at which binding is half-saturated) in experiment [7] is above 1000 µM. Moreover, in experiment [8], the Kd is 2000 to 10000 µM.

B2: CCL21trunc (CCL21 residues 1–79) (domain or fragment, human, UniProt O00585 24-102, looked up)
chain: SDGGAQDCCLKYSQRKIPAKVVRSYRKQEPSLGCSIPAILFLPRKRSQAELCADPKELWVQQLMQHLDKTPSPQKPAQG
Regarding B2, in experiment [5], the “calcium mobilization in CHEM-1 CCR7+ cells, EC50” value was determined as 0.00585 µM and the “β-arrestin 1 recruitment to CCR7 (panel with the truncation variants), EC50” value was around 0.06 µM. Besides, the “β-arrestin 1 recruitment to ACKR4 (panel with the truncation variants), EC50” value in experiment [6] was around 0.005 µM.
